Source: patent US20250289897A1 (Eli Lilly, published 2025)

Tests used:
[1] = target: T1, cynomolgus monkey LEPR, full length, on HEK293-STAT3Luc-cmLepR2 cells (Macaca fascicularis); assay: flow cytometry on live HEK293-STAT3Luc-cmLepR2 cells, AF647 anti-human IgG; average of 4 runs, SD 0.7
T1 construct: whole, on cells; also called cyno-LEPR; Macaca fascicularis LEPR

[2] = target: neonatal Fc receptor (FcRn) on FcRn Affinity Column Gen2 (Roche, Cat #09430857001) (UniProt P55899 24-297; P61769 21-119, limits assumed); assay: FcRn-HPLC (Roche FcRn Affinity Column Gen2), pH gradient 5.5 to 8.8 over 90 minutes
[3] = target: T2, human LEPR, full length, on HEK293-STAT3Luc-hLepR1 cells (Homo sapiens, UniProt P48357 22-1165); assay: flow cytometry on live HEK293-STAT3Luc-hLepR1 cells, AF647 anti-human IgG; average of 4 runs, SD 7.1
T2 construct: also called human LEPR on live cell surface
T2 sequence: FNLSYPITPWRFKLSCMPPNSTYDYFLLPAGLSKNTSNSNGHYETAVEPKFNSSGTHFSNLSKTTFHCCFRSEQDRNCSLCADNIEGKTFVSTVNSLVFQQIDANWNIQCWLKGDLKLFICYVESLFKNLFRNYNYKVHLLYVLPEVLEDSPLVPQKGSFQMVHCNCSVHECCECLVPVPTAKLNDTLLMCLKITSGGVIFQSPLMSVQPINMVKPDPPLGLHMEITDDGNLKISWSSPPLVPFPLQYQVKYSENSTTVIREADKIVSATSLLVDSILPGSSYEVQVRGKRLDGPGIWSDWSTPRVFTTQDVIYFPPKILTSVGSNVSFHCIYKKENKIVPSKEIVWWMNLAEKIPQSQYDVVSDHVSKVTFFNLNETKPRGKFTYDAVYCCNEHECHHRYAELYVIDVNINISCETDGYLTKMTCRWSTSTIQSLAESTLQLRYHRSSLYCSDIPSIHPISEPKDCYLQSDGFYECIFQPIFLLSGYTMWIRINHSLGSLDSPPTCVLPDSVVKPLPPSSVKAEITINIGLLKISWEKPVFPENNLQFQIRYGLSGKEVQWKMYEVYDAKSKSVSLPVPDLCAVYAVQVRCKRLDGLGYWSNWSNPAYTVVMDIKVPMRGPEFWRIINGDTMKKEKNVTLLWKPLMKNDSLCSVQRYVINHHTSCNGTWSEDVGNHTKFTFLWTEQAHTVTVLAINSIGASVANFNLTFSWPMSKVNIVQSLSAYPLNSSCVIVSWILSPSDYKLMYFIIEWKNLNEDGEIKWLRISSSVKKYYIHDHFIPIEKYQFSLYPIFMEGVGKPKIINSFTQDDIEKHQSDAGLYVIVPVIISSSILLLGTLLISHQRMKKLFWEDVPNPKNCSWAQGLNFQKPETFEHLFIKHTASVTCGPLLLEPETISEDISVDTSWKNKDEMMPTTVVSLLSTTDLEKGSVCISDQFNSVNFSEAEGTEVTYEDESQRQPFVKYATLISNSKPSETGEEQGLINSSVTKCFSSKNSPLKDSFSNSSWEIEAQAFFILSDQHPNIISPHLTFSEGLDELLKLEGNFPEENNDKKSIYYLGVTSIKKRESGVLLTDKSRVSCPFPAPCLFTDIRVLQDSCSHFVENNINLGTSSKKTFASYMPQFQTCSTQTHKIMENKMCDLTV

canine LEPR-ECD-His = target: T3, canine LEPR-ECD-His (canine); assay: SPR (Biacore T200), antibody captured on Protein A/G chip, His-tagged LEPR-ECD as analyte; summary sentence of Table 3
T3 chain: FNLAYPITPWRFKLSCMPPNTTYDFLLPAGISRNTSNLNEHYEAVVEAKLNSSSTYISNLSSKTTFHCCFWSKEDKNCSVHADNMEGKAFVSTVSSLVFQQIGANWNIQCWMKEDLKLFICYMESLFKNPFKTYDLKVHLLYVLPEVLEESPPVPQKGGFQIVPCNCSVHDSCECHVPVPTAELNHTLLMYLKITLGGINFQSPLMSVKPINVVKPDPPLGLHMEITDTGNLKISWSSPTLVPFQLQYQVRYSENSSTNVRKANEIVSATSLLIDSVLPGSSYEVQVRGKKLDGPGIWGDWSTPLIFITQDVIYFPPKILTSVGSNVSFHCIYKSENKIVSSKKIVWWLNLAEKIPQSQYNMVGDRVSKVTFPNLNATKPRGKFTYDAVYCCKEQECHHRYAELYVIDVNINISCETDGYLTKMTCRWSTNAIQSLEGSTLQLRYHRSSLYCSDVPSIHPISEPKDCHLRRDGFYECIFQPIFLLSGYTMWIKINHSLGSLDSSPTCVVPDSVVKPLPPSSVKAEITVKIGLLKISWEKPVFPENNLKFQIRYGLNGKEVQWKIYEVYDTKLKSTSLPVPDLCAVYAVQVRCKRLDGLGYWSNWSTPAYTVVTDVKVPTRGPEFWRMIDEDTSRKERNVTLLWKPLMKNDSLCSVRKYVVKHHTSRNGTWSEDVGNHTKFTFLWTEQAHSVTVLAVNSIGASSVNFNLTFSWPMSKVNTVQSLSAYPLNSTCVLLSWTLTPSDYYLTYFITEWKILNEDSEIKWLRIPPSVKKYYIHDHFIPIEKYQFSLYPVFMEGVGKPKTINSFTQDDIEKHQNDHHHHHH

[4] = target: T1, cynomolgus monkey LEPR, full length, on …; assay: flow cytometry on live HEK293-STAT3Luc-cmLepR2 cells, AF647 anti-human IgG; average of 4 runs, SD 0.6

B1: Antibody A (antibody, human IgG1, kappa, L234A L235A)
heavy: EVQLLESGGGLVQPGGSLRLSCAASGFTFSSFAMSWVRQAPGKGLEWVSAISGSGGSTYSADSVRGRFTISRDNSKNTLYLQMNSLRAEDTAVYYCAKDQGDWDFLFDYWGQGTLVTVSSASTKGPSVFPLAPSSKSTSGGTAALGCLVKDYFPEPVTVSWNSGALTSGVHTFPAVLQSSGLYSLSSVVTVPSSSLGTQTYICNVNHKPSNTKVDKRVEPKSCDKTHTCPPCPAPEAAGGPSVFLFPPKPKDTLYITREPEVTCVVVSVSHEDPEVKFNWYVDGVEVHNAKTKPREEQYNSTYRVVSVLTVLHQDWLNGKEYKCKVSNKALPAPIEKTISKAKGQPREPQVYTLPPSREEMTKNQVSLTCLVKGFYPSDIAVEWESNGQPENNYKTTPPVLDSDGSFFLYSKLTVDKSRWQQGNVFSCSVMHEALHNHYTQKSLSLSPGK
light: DIQMTQSPSFLSASVGDRVTITCRASQGISSSLAWYQQKPGKAPKLLIYTASTLQSGVPSRFSGSGSGTEFTLTISSLQPEDFATYYCQQLIYYPFTFGQGTKVEIKRTVAAPSVFIFPPSDEQLKSGTASVVCLLNNFYPREAKVQWKVDNALQSGNSQESVTEQDSKDSTYSLSSTLTLSKADYEKHKVYACEVTHQGLSSPVTKSFNRGEC
notes: IgG1 mAb
EC50 [1]: 0.74 nM | Retention Time [2]: 80.1 min

B2: Antibody B (antibody, human IgG1, kappa, L234A L235A, V domains shown)
VH: EVQLLESGGGLVQPGGSLRLSCAASGFTFSSFAMSWVRQAPGKGLEWVSAISGSGGSTYSADSVRGRFTISRDNSKNTLYLQMNSLRAEDTAVYYCAKDQGDWDFLFDYWGQGTLVTVSS
VL: DIQMTQSPSFLSASVGDRVTITCRVSQGISSSLAWYQQKPGKAPKLLIYTASTLQSGVPSRFSGSGSGTEFTLTISSLQPEDFATYYCQQLNYYPFTFGQGTKVEIKR
EC50 [3]: 13.6 nM

B3: Antibody C (antibody, human IgG1, kappa, L234A L235A, V domains shown)
VH: EVQLLESGGGLVQPGGSLRLSCAASGFTFSSFAMSWVRQAPGKGLEWVSAISGSGGSTYSADSVRGRFTISRDNSKNTLYLQMNSLRAEDTAVYYCAKDQGDWDFLFDYWGQGTLVTVSS
VL: DIQMTQSPSFLSASVGDRVTITCRASQGISSSLAWYQQKPGKAPKLLIYTASTLQSGVPSRFSGSGSGTEFTLTISSLQPEDFATYYCQQLNYYPFSFGQGTKVEIKR
binding result (canine LEPR-ECD-His): binds | EC50 [4]: 0.83 nM
